These results are taken from patent US20070036796A1.

The target of this assay is human CCR5 (human) (UniProt P51681). The assay is described as follows: cell-based or functional assay.
Chain of human CCR5 (human) (P51681 whole entry): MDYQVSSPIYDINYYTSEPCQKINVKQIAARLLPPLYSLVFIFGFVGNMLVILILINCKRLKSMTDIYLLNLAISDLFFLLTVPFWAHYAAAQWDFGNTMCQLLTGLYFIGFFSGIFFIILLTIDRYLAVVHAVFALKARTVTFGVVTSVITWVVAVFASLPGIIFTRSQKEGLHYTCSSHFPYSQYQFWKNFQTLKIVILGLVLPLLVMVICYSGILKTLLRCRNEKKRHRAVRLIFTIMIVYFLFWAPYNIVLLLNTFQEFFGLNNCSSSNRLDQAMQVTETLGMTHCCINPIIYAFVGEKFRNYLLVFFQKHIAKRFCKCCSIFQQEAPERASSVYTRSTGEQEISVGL

On to “Pharmingen 2D7 (CD 195; Cat. Nr. 555990) (antibody)”, for which the IC50, PhenoSenseHIV assay (ViroLogic) using JRCSF strain came to 1.4 µg/ml; the IC50, inhibition of HIV growth in human PBMC, JRCSF (p24 ELISA) came out at 0.271 µg/mL; the IC50, inhibition of HIV growth in human PBMC, Nl-Bal (p24 ELISA) stood at 0.076 µg/mL.
